We go through one molecule from article PMC11180146 (2024).

The target of experiment [1] is RNAseB, glycosylated (HM N-glycan at N34, mainly Man5 and Man6) (beef (bovine), as said of the protein in general) (UniProt P61823). The experiment in a line: SPR; glycosylated RNAseB (Man5/6) amine-coupled to a CM5 chip on flow cell 2 (150 RU), deglycosylated RNAseB on control flow cell 1; enzyme as analyte, 120 s injection, 600 s dissociation; HBS-EP running buffer; Biacore X100.

Experiment [2] has as its target T1, RNAseB, glycosylated (HM N-glycan at N34, mainly Man5 and Man6) (beef (bovine), as said of the protein …, UniProt P61823 27-150, HM N-glycan (mainly Man5 and Man6) at N34).
T1 chain: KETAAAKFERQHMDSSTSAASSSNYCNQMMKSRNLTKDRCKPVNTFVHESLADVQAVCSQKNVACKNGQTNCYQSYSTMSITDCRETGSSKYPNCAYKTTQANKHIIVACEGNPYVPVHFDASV
The experiment in a line: SPR.

B1: BT1285_(D161A-E163A), catalytically inactive variant of the GH18 endo-β-N-acetylglucosaminidase BT1285 (enzyme)
chain: MPVNQSDNNQSEVVTRSATGIKNIVYIEVNDINPLNAGSYIMDDAPFFDYVILFAANIRGVGSDATLYNNPNVQYILDHKDTLIKPLQDKGIKVLLGLLGDHTGLGFANMNSAQTEQFATAVANAVSQYGLDGVDFADAWAEYGRNGYPSGSTGSFSNLITALHNKMPGKTITVFNYGYTSELTGVNSYIDYGIYAFFNSPSWSTGFGMPNSKFAPYTINLNSAPSAASAQLYSGQVASKGYGAIGYYDLRANNIVSVLNGVAKGAFKSTCTYDGNSYPKNY
The molecule B1 gave a Kd in experiment [1] of 3.5 nM. Further, the koff in experiment [2] came out at 0.000419 s⁻¹.
